Data from patent publication US20140315822A1 (INSTITUT PASTEUR, published 2014).
Read-outs that look alike come from different tables or passages of the source.

What was measured:
VIR13 (Neurovita 1) [1] = target: VIR13 (Neurovita 1) (rabies virus); test: method not restated in the table; ITC per paragraph 50
VIR13 (Neurovita 1) [2] = target: VIR13 (Neurovita 1) (rabies virus)

B1: PDZ domain of the human PTPN4 protein (other)
chain: SSPEKPTPNGGIPHDNLVLIRMKPDENGRFGFNVKGGYDQKMPVIVSRVAPGTPADLCVPRLNEGDQVVLINGRDIAEHTHDQVVLFIKASCERHSGELMLLVRPN
notes: domain: PDZ domain
Kd (VIR13 (Neurovita 1) [1]): 560 µM

B2: PDZ domain of the human MAST2 protein (other)
chain: MRPPIIIHRAGKKYGFTLRAIRVYMGDSDVYTVHHMVWHVEDGGPASEAGLRQGDLITHVNGEPVHGLVHTEVVELILKSGNKVAISTTPLEN
Kd (VIR13 (Neurovita 1) [2]): 1.26 µM
